Columns and labels:
[1] = target: Procollagen-lysine, 2-oxoglutarate 5-dioxygenase 1 (Homo sapiens) (UniProt Q02809); assay: anti-FLAG co-IP LC-MS, exp 4, +Dox +IFNG
[2] = target: Elongation factor 1-alpha 1 (Homo sapiens) (UniProt P68104); assay: anti-FLAG co-IP LC-MS, exp 4, +Dox +IFNG
[3] = target: Reticulon-4 (Homo sapiens) (UniProt Q9NQC3); assay: anti-FLAG co-IP LC-MS, exp 4, +Dox +IFNG
[4] = target: Alpha-actinin-4 (Homo sapiens) (UniProt O43707); assay: anti-FLAG co-IP LC-MS, exp 4, +Dox +IFNG
[5] = target: Actin-related protein 3 (Homo sapiens) (UniProt P61158); assay: anti-FLAG co-IP LC-MS, exp 4, +Dox +IFNG
[6] = target: Guanine nucleotide-binding protein G(i) subunit alpha-2 (Homo sapiens) (UniProt P04899); assay: anti-FLAG co-IP LC-MS, exp 4, +Dox +IFNG
[7] = target: Drebrin (Homo sapiens) (UniProt Q16643); assay: anti-FLAG co-IP LC-MS, exp 4, +Dox +IFNG
[8] = target: Procollagen-lysine,2-oxoglutarate 5-dioxygenase 2 (Homo sapiens) (UniProt O00469); assay: anti-FLAG co-IP LC-MS, exp 4, +Dox +IFNG
[9] = target: Nestin (Homo sapiens) (UniProt P48681); assay: anti-FLAG co-IP LC-MS, exp 4, +Dox +IFNG
[10] = target: Heat shock protein HSP 90-alpha (Homo sapiens) (UniProt P07900); assay: anti-FLAG co-IP LC-MS, exp 4, +Dox +IFNG
[11] = target: 60S acidic ribosomal protein P0 (Homo sapiens) (UniProt P05388); assay: anti-FLAG co-IP LC-MS, exp 4, +Dox +IFNG
[12] = target: Myosin regulatory light chain 12A (Homo sapiens) (UniProt J3QRS3); assay: anti-FLAG co-IP LC-MS, exp 4, +Dox +IFNG
[13] = target: Calpain-2 catalytic subunit (Homo sapiens) (UniProt P17655); assay: anti-FLAG co-IP LC-MS, exp 4, +Dox +IFNG
[14] = target: Serine/threonine-protein phosphatase 2A 65 kDa regulatory subunit A alpha isoform (Homo sapiens) (UniProt P30153); assay: anti-FLAG co-IP LC-MS, exp 3, +Dox
[15] = target: Protein disulfide-isomerase (Homo sapiens) (UniProt P07237); assay: anti-FLAG co-IP LC-MS, exp 3, +Dox
[16] = target: Filamin-C (Homo sapiens) (UniProt Q14315); assay: anti-FLAG co-IP LC-MS, exp 3, +Dox
[17] = target: KN motif and ankyrin repeat domain-containing protein 2 (Homo sapiens) (UniProt Q63ZY3); assay: anti-FLAG co-IP LC-MS, exp 3, +Dox
[18] = target: Elongation factor 1-alpha 1 (Homo sapiens) (UniProt P68104); assay: anti-FLAG co-IP LC-MS, exp 3, +Dox
[19] = target: Cytoskeleton-associated protein 4 (Homo sapiens) (UniProt Q07065); assay: anti-FLAG co-IP LC-MS, exp 3, +Dox
[20] = target: Tubulin beta chain (Homo sapiens) (UniProt P07437); assay: anti-FLAG co-IP LC-MS, exp 3, +Dox
[21] = target: Heat shock protein HSP 90-beta (Homo sapiens) (UniProt P08238); assay: anti-FLAG co-IP LC-MS, exp 3, +Dox
[22] = target: Myosin-9 (Homo sapiens) (UniProt P35579); assay: anti-FLAG co-IP LC-MS, exp 3, +Dox
[23] = target: Tubulin alpha-4A chain (Homo sapiens) (UniProt P68366); assay: anti-FLAG co-IP LC-MS, exp 3, +Dox
[24] = target: S-adenosylhomocysteine hydrolase-like protein 1 (Homo sapiens) (UniProt O43865); assay: anti-FLAG co-IP LC-MS, exp 3, +Dox
[25] = target: Elongation factor 1-gamma (Homo sapiens) (UniProt P26641); assay: anti-FLAG co-IP LC-MS, exp 3, +Dox
[26] = target: Prolyl 4-hydroxylase subunit alpha-1 (Homo sapiens) (UniProt P13674); assay: anti-FLAG co-IP LC-MS, exp 3, +Dox
[27] = target: 60S ribosomal protein L13 (Homo sapiens) (UniProt P26373); assay: anti-FLAG co-IP LC-MS, exp 3, +Dox
[28] = target: Neutral cholesterol ester hydrolase 1 (Homo sapiens) (UniProt Q6PIU2); assay: anti-FLAG co-IP LC-MS, exp 3, +Dox
[29] = target: Plasminogen activator inhibitor 1 RNA-binding protein (Homo sapiens) (UniProt Q8NC51); assay: anti-FLAG co-IP LC-MS, exp 3, +Dox
[30] = target: Drebrin (Homo sapiens) (UniProt Q16643); assay: anti-FLAG co-IP LC-MS, exp 3, +Dox
[31] = target: Ribosome-binding protein 1 (Homo sapiens) (UniProt Q9P2E9); assay: anti-FLAG co-IP LC-MS, exp 3, +Dox
[32] = target: Tubulin alpha-1B chain (Homo sapiens) (UniProt P68363); assay: anti-FLAG co-IP LC-MS, exp 3, +Dox
[33] = target: Tubulin beta-4B chain (Homo sapiens) (UniProt P68371); assay: anti-FLAG co-IP LC-MS, exp 3, +Dox
[34] = target: Desmin (Homo sapiens) (UniProt P17661); assay: anti-FLAG co-IP LC-MS, exp 3, +Dox
[35] = target: Heterogeneous nuclear ribonucleoprotein K (Homo sapiens) (UniProt P61978); assay: anti-FLAG co-IP LC-MS, exp 3, +Dox
[36] = target: Tubulin beta-2A chain (Homo sapiens) (UniProt Q13885); assay: anti-FLAG co-IP LC-MS, exp 3, +Dox
[37] = target: Vimentin (Homo sapiens) (UniProt P08670); assay: anti-FLAG co-IP LC-MS, exp 3, +Dox
[38] = target: 40S ribosomal protein S8 (Homo sapiens) (UniProt P62241); assay: anti-FLAG co-IP LC-MS, exp 3, +Dox
[39] = target: Plectin (Homo sapiens) (UniProt Q15149); assay: anti-FLAG co-IP LC-MS, exp 3, +Dox

Chain of Elongation factor 1-alpha 1 (Homo sapiens) (P68104 2-462 limits assumed): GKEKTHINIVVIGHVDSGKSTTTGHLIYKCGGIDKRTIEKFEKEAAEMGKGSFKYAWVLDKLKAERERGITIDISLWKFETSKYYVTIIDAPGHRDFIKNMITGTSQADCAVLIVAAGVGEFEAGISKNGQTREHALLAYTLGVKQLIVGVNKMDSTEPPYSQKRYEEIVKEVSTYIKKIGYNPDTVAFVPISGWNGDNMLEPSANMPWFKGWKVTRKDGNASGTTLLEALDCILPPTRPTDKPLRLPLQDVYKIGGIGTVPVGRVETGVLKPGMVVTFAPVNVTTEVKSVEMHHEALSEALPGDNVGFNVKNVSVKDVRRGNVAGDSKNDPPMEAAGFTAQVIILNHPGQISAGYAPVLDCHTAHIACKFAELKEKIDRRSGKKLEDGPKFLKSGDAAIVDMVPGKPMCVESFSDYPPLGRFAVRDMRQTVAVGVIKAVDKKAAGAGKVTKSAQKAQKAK
Chain of Drebrin (Homo sapiens) (Q16643 2-649 limits assumed): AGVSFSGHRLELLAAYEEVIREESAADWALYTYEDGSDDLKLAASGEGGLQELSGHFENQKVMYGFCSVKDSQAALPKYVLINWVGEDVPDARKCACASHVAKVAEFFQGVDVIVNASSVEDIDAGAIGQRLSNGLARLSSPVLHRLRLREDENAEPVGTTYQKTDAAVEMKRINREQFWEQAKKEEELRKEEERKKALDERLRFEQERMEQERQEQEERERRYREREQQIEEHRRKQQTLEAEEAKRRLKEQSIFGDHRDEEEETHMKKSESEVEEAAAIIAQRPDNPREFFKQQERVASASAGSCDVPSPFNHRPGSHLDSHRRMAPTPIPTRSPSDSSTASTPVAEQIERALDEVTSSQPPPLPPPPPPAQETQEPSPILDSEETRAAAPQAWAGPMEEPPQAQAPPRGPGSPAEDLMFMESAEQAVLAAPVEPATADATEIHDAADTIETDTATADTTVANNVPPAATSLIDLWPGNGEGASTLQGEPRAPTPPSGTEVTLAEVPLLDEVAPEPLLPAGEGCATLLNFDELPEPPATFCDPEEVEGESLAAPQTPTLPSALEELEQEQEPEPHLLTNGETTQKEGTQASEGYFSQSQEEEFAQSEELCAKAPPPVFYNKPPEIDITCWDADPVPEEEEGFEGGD
Chain of Nestin (Homo sapiens) (P48681 whole entry): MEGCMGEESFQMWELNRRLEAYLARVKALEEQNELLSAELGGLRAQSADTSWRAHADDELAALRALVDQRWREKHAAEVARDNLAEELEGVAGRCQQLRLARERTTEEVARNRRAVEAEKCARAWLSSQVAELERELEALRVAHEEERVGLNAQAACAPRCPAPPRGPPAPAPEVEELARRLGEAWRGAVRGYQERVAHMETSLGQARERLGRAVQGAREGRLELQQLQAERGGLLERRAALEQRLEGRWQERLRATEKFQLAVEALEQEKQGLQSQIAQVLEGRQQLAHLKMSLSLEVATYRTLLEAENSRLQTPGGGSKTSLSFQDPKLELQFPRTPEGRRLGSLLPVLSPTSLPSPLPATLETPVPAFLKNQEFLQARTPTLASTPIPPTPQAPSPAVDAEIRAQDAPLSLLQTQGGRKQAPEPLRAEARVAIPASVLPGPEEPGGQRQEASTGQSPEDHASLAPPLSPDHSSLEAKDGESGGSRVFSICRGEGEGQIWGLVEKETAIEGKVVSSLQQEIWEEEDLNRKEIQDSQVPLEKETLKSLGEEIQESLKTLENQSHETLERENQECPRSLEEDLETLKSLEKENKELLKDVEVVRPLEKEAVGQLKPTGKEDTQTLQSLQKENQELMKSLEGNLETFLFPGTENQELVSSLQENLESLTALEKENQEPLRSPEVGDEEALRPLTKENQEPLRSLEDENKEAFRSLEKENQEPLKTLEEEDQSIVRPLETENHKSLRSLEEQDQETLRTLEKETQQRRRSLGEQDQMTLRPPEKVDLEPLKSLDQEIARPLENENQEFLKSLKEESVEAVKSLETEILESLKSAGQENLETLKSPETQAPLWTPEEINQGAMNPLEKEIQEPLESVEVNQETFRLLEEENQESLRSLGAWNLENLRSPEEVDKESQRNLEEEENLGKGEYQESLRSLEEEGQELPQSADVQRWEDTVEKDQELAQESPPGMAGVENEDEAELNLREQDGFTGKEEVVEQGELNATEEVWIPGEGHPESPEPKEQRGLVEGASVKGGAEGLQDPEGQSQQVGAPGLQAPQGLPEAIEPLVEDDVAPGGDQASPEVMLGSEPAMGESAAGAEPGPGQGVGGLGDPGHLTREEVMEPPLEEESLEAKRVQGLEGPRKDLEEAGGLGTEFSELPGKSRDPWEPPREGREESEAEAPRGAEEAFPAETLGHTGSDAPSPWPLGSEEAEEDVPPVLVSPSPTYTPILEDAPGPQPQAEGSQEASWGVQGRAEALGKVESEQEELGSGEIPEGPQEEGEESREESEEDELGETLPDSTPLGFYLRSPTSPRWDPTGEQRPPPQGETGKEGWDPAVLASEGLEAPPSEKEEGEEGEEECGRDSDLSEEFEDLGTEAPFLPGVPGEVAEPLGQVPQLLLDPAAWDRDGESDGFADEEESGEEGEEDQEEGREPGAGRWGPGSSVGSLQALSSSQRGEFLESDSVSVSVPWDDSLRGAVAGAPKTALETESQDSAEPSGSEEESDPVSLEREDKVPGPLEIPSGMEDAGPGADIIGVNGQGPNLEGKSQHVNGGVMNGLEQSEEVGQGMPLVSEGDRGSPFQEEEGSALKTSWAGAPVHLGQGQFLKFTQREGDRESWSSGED
Chain of Plasminogen activator inhibitor 1 RNA-binding protein (Homo sapiens) (Q8NC51 2-408 limits assumed): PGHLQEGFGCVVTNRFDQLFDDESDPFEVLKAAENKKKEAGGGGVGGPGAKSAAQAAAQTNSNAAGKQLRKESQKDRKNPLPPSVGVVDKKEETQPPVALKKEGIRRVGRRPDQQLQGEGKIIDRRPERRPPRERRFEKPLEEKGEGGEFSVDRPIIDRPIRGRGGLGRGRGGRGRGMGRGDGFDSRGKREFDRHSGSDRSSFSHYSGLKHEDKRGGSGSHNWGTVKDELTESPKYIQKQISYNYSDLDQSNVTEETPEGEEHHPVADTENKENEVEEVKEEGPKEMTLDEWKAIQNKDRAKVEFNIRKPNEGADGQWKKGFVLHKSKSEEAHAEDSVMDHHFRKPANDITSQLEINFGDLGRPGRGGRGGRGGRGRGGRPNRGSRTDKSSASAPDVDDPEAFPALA
Chain of Desmin (Homo sapiens) (P17661 2-470 limits assumed): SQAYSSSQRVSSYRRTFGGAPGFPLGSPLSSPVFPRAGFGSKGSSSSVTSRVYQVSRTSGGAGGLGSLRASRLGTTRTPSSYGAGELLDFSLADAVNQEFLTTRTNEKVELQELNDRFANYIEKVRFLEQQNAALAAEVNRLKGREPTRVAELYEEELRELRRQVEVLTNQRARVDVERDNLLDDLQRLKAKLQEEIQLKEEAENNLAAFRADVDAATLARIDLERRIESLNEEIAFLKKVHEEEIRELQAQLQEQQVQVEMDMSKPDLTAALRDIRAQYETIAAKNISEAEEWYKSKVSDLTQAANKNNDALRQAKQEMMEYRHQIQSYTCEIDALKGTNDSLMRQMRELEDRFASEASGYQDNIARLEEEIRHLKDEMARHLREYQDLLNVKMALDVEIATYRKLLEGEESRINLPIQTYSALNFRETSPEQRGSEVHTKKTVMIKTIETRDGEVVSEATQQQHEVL
Chain of Cytoskeleton-associated protein 4 (Homo sapiens) (Q07065 whole entry): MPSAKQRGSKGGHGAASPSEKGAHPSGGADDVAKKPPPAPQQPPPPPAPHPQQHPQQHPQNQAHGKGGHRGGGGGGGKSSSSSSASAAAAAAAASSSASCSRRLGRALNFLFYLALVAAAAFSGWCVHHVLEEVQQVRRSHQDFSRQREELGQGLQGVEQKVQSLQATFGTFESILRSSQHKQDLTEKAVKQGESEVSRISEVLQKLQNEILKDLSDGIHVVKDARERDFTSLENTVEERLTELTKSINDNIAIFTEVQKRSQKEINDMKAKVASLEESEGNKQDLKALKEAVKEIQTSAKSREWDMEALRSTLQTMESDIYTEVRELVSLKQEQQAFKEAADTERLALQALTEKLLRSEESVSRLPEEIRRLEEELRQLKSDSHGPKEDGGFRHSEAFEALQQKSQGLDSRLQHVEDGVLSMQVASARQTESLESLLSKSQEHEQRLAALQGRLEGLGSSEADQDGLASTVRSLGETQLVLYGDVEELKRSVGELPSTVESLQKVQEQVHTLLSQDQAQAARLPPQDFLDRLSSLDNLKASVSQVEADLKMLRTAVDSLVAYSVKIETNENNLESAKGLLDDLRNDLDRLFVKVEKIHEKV
Chain of KN motif and ankyrin repeat domain-containing protein 2 (Homo sapiens) (Q63ZY3 whole entry, the tested form may be a part): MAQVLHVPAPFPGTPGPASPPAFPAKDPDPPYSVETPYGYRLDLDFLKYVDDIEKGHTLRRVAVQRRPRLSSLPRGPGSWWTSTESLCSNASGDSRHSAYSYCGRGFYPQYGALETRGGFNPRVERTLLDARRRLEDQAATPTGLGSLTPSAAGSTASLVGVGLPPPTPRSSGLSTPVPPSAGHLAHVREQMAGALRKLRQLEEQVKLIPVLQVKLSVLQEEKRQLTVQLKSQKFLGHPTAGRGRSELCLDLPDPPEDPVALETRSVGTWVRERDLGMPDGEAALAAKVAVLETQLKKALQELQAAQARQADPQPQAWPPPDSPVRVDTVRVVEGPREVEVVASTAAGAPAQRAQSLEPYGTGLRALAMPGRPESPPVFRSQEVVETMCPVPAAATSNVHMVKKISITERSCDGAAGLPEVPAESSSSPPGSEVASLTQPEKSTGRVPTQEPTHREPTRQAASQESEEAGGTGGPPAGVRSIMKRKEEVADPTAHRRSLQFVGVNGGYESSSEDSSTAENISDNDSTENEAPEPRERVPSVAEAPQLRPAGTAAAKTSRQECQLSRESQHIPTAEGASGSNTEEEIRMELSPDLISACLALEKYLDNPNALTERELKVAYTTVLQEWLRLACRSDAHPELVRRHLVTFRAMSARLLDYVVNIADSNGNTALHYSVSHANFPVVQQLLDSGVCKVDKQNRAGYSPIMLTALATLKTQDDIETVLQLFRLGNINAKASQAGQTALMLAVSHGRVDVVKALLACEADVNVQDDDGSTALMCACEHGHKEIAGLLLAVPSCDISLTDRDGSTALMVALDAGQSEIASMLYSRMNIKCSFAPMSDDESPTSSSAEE

## i3XFLAG-NLS-CTDaa154-424
[1]
  PSMs: 6 PSMs
[2]
  PSMs: 9 PSMs
[3]
  PSMs: 6 PSMs
[4]
  PSMs: 46 PSMs
[5]
  PSMs: 3 PSMs
[6]
  PSMs: 11 PSMs
[7]
  PSMs: 33 PSMs
[8]
  PSMs: 7 PSMs
[9]
  PSMs: 2 PSMs
[10]
  PSMs: 10 PSMs
[11]
  PSMs: 36 PSMs
[12]
  PSMs: 62 PSMs
[13]
  PSMs: 3 PSMs
[14]
  PSMs: 5 PSMs
[15]
  PSMs: 3 PSMs
[16]
  PSMs: 2 PSMs
[17]
  PSMs: 3 PSMs
[18]
  PSMs: 9 PSMs
[19]
  PSMs: 30 PSMs
[20]
  PSMs: 41 PSMs
[21]
  PSMs: 2 PSMs
[22]
  PSMs: 122 PSMs
[23]
  PSMs: 14 PSMs
[24]
  PSMs: 7 PSMs
[25]
  PSMs: 3 PSMs
[26]
  PSMs: 3 PSMs
[27]
  PSMs: 2 PSMs
[28]
  PSMs: 3 PSMs
[29]
  PSMs: 2 PSMs
[30]
  PSMs: 3 PSMs
[31]
  PSMs: 24 PSMs
[32]
  PSMs: 22 PSMs
[33]
  PSMs: 42 PSMs
[34]
  PSMs: 9 PSMs
[35]
  PSMs: 2 PSMs
[36]
  PSMs: 35 PSMs
[37]
  PSMs: 42 PSMs
[38]
  PSMs: 2 PSMs
[39]
  PSMs: 5 PSMs

From patent US20250339531A1, “DUX4 POLYPEPTIDES AND NUCLEIC ACIDS FOR TREATING INFLAMMATORY AND AUTOIMMUNE CONDITIONS” (Fred Hutchinson Cancer Center, priority 2021, published 2025)
